Measured values taken from PMC10952841, “Biocatalytic synthesis of 2′‐deoxynucleotide 5′‐triphosphates from bacterial genomic DNA: Proof of principle” (Biotechnology and Bioengineering, 2023).

Assays:
Assay in all cases: purified protein
Format in all cases: biochemical, Escherichia coli
[1] = substrate: Nc1ccn([C@H]2C[C@H](O)[C@@H](COP(=O)(O)O)O2)c(=O)n1; conditions: 2 mM ATP, 10 mM Mg acetate, 50 mM K acetate, 20 mM Tris-acetate, 37°C, three protein batches (N = 3)
[2] = substrate: Nc1nc2c(ncn2[C@H]2C[C@H](O)[C@@H](COP(=O)(O)O)O2)c(=O)[nH]1; conditions: 2 mM ATP, 10 mM Mg acetate, 50 mM K acetate, 20 mM Tris-acetate, 37°C, three protein batches (N = 3)
[3] = substrate: Nc1nc2c(ncn2[C@H]2C[C@H](O)[C@@H](CO[P@](=O)(O)OP(=O)(O)O)O2)c(=O)[nH]1; conditions: 2 mM ATP, 10 mM Mg acetate, 50 mM K acetate, 20 mM Tris-acetate, 37°C
[4] = substrate: Cc1cn([C@H]2C[C@H](O)[C@@H](COP(=O)(O)OP(=O)(O)O)O2)c(=O)[nH]c1=O; conditions: 2 mM ATP, 10 mM Mg acetate, 50 mM K acetate, 20 mM Tris-acetate, 37°C
[5] = substrate: Nc1ncnc2c1ncn2[C@H]1C[C@H](O)[C@@H](COP(=O)(O)OP(=O)(O)O)O1; conditions: 2 mM ATP, 10 mM Mg acetate, 50 mM K acetate, 20 mM Tris-acetate, 37°C
[6] = substrate: Nc1ccn([C@H]2C[C@H](O)[C@@H](COP(=O)(O)OP(=O)(O)O)O2)c(=O)n1; conditions: 2 mM ATP, 10 mM Mg acetate, 50 mM K acetate, 20 mM Tris-acetate, 37°C
[7] = substrate: Cc1cn([C@H]2C[C@H](O)[C@@H](COP(=O)(O)O)O2)c(=O)[nH]c1=O; conditions: 2 mM ATP, 10 mM Mg acetate, 50 mM K acetate, 20 mM Tris-acetate, 37°C, three protein batches (N = 3)

B1: cytidylate kinase (cmk) (Escherichia coli K-12) (protein)
chain: MTAIAPVITIDGPSGAGKGTLCKAMAEALQWHLLDSGAIYRVLALAALHHHVDVASEDALVPLASHLDVRFVSTNGNLEVILEGEDVSGEIRTQEVANAASQVAAFPRVREALLRRQRAFRELPGLIADGRDMGTVVFPDAPVKIFLDASSEERAHRRMLQLQEKGFSVNFERLLAEIKERDDRDRNRAVAPLVPAADALVLDSTTLSIEQVIEKALQYARQKLALA
notes: C-terminal 6x His tag (pET24a), kept; E. coli BL21(DE3) host; Ni-NTA
Km [1]: 314 ± 154 µM | Vmax [1]: 69.3 µmol/min/mg

B2: guanylate kinase (gmk) (Escherichia coli K-12) (protein)
chain: MAQGTLYIVSAPSGAGKSSLIQALLKTQPLYDTQVSVSHTTRQPRPGEVHGEHYFFVNHDEFKEMISRDAFLEHAEVFGNYYGTSREAIEQVLATGVDVFLDIDWQGAQQIRQKMPHARSIFILPPSKIELDRRLRGRGQDSEEVIAKRMAQAVAEMSHYAEYDYLIVNDDFDTALTDLKTIIRAERLRMSRQKQRHDALISKLLAD
notes: as for B1
Km [2]: 848 ± 402 µM | Vmax [2]: 76.2 µmol/min/mg

B3: nucleotide disphosphate kinase (ndk; NDK) (Escherichia coli K-12) (protein)
chain: AIERTFSIIKPNAVAKNVIGNIFARFEAAGFKIVGTKMLHLTVEQARGFYAEHDGKPFFDGLVEFMTSGPIVVSVLEGENAVQRHRDLLGATNPANALAGTLRADYADSLTENGTHGSDSVESAAREIAYFFGEGEVCPRTR
notes: as for B1
Km [3]: 431 ± 89 µM | Km [4]: 2398 ± 1036 µM | Km [5]: 1185 ± 87 µM | Km [6]: 543 ± 105 µM

B4: thymidylate kinase (tmk) (Escherichia coli K-12) (protein)
chain: MRSKYIVIEGLEGAGKTTARNVVVETLEQLGIRDMVFTREPGGTQLAEKLRSLVLDIKSVGDEVITDKAEVLMFYAARVQLVETVIKPALANGTWVIGDRHDLSTQAYQGGGRGIDQHMLATLRDAVLGDFRPDLTLYLDVTPEVGLKRARARGELDRIEQESFDFFNRTRARYLELAAQDKSIHTIDATQPLEAVMDAIRTTVTHWVKELDA
notes: as for B1
Km [7]: 150 ± 22 µM | Vmax [7]: 39.4 µmol/min/mg
